# Test results as given in patent publication US20100311820, “NUCLEIC ACID MODULATORS OF GLYCOPROTEIN VI” (Regado Biosciences, Inc, published 2010).
# T1: Glycoprotein VI extracellular domain (Gln21-Lys267) (Homo sapiens) (UniProt Q9HCN6)
# T1 sequence: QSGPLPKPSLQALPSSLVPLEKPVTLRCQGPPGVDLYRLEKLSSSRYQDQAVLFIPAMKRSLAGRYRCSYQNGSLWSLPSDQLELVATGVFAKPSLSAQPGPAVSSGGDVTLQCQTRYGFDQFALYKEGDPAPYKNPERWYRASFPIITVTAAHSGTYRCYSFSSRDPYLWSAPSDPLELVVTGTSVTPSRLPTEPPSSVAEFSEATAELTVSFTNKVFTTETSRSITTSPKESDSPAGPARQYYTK
# T2: Glycoprotein VI extracellular domain (Gln21-Lys267) (Homo sapiens, UniProt Q9HCN6 SEQ:1-247)
# T2 chain: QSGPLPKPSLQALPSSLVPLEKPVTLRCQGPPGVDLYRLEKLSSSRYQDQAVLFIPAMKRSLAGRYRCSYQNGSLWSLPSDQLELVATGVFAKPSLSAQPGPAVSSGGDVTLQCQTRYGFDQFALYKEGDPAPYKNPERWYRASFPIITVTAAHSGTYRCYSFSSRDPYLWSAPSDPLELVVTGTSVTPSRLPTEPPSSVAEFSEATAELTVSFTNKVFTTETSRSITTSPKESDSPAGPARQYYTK
# How the values were obtained:
# [1] = target: T1, Glycoprotein VI extracellular domain (Gln21-Lys267) (Homo sapiens); test: filter
# [2] = target: T2, Glycoprotein VI extracellular domain …; test: filter; text p359 names it EF-3 T2mut8; conditions: tags: C-terminal His6; R&D Systems 3627-GP; label: 5'-32P
# Procedure: (§1) Enrichment of the ligand libraries for GPVI was monitored in direct binding studies utilizing radiolabeled ligand RNA from respective rounds of SELEX and soluble GPVI. Binding studies were performed with trace P³² end-labeled RNA added to serial dilutions of GPVI in Binding Buffer F. To prepare radiolabeled RNAs for binding studies, one hundred picomoles of RNA was dephosphorylated with Bacterial Alkaline Phopshatase at 50° C. for 1 hour. The reaction was phenol:chloroform:isoamyl alcohol (25:24:1) extracted, chloroform: isoamyl:alcohol (24:1) extracted, and ethanol precipitated. Three pmoles of dephosphorylated RNA was end labeled with T4 Poylnucleotide Kinase with supplied buffer, and 20 μCi of γ-P³²-ATP and subsequently cleaned with a Biorad MicroBio Spin P-30 spin column. End-labeled RNA was diluted to a final concentration of 2000 cpm/μL and heat denatured at 65° C. for 5 minutes. RNA and GPVI dilutions were equilibrated at 37° C. prior to use. RNA (5 μL) was added to varying concentrations of GPVI (15 μL) at 37° C. and incubated together for 5 to 15 minutes. […] The membranes were exposed to a phosphorimager screen, scanned, and quantitated with a Molecular Dynamics Storm 840 Phosphorimager. The fraction bound was calculated by dividing the counts on the nitrocellulose by the total counts and adjusting for the background. […]
# [3] = target: T2, Glycoprotein VI extracellular domain …; test: filter; text p359 names it EF-3 T2 mut9; conditions: tags: C-terminal His6; R&D Systems 3627-GP; label: 5'-32P
# Procedure: as §1
# [4] = target: T2, Glycoprotein VI extracellular domain …; test: filter; text p359 names it EF-3 T2mut10; conditions: tags: C-terminal His6; R&D Systems 3627-GP; label: 5'-32P
# Procedure: as §1
# [5] = target: T2, Glycoprotein VI extracellular domain …; test: competition; competition with radiolabeled parent; conditions: tags: C-terminal His6; R&D Systems 3627-GP
# [6] = target: T2, Glycoprotein VI extracellular domain …; test: filter; conditions: tags: C-terminal His6; R&D Systems 3627-GP; label: 5'-32P
# Procedure: Enrichment of the ligand libraries for GPVI was monitored in direct binding studies utilizing radiolabeled ligand RNA from respective rounds of SELEX and soluble GPVI. Binding studies were performed with trace P³² end-labeled RNA added to serial dilutions of GPVI in Binding Buffer F. To prepare radiolabeled RNAs for binding studies, one hundred picomoles of RNA was dephosphorylated with Bacterial Alkaline Phopshatase at 50° C. for 1 hour. The reaction was phenol:chloroform:isoamyl alcohol (25:24:1) extracted, chloroform: isoamyl:alcohol (24:1) extracted, and ethanol precipitated. Three pmoles of dephosphorylated RNA was end labeled with T4 Poylnucleotide Kinase with supplied buffer, and 20 μCi of γ-P³²-ATP and subsequently cleaned with a Biorad MicroBio Spin P-30 spin column. End-labeled RNA was diluted to a final concentration of 2000 cpm/μL and heat denatured at 65° C. for 5 minutes. RNA and GPVI dilutions were equilibrated at 37° C. prior to use. RNA (5 μL) was added to varying concentrations of GPVI (15 μL) at 37° C. and incubated together for 5 to 15 minutes. The complexed RNA/GPVI protein mixture was then loaded over a Protean BA85 nitrocellulose membrane, overlayed on a Genescreen Plus Nylon membrane, in a 96 well vacuum manifold system with washing. The membranes were exposed to a phosphorimager screen, scanned, and quantitated with a Molecular Dynamics Storm 840 Phosphorimager. The fraction bound was calculated by dividing the counts on the nitrocellulose by the total counts and adjusting for the background. Results for binding of enriched ligand libraries from round 10 E2 and round 10 EF of the SELEX as compared to the GPVI-naïve starting ligand library are shown in FIG. 3.
# [7] = target: T2, Glycoprotein VI extracellular domain …; test: competition; 5' linker ligands assayed by competition; conditions: tags: C-terminal His6; R&D Systems 3627-GP
# [8] = target: T2, Glycoprotein VI extracellular domain …; test: filter; buffer F, 37 C; conditions: tags: C-terminal His6; R&D Systems 3627-GP; label: 5'-32P
# [9] = target: T2, Glycoprotein VI extracellular domain …; test: filter; text: family range about 11 to 50 nM, EF-1 lowest affinity; conditions: tags: C-terminal His6; R&D Systems 3627-GP; label: 5'-32P
# Procedure: as §1, with “minutes.” for “minutes. RNA and GPVI dilutions were equilibrated at 37° C. prior to use. RNA (5 μL) was added to varying concentrations of GPVI (15 μL) at 37° C. and incubated together for 5 to 15 minutes.”
# (§2) The affinity of each of the anti-GPVI ligands for GPVI was determined by direct binding studies using radiolabeled trace ligand RNA and soluble GPVI, per the binding methodology described above in Example 1.
# [10] = target: T2, Glycoprotein VI extracellular domain …; test: competition; competition with radiolabeled parent ligand; conditions: tags: C-terminal His6; R&D Systems 3627-GP
# [11] = target: T2, Glycoprotein VI extracellular domain …; test: filter; p374 states 2-4 nM; buffer F (150 mM NaCl, 2 mM CaCl2), 37 C; conditions: tags: C-terminal His6; R&D Systems 3627-GP; label: 5'-32P
# Procedure: as §1
# [12] = target: T2, Glycoprotein VI extracellular domain …; test: filter; buffer F, 37 C; conditions: tags: C-terminal His6; R&D Systems 3627-GP; label: 5'-32P
# Procedure: as §1, with “minutes.” for “minutes. RNA and GPVI dilutions were equilibrated at 37° C. prior to use. RNA (5 μL) was added to varying concentrations of GPVI (15 μL) at 37° C. and incubated together for 5 to 15 minutes.”
# as §2
molecule,measurement,setting,value
GGAGGACGGCGCGCCUGGCAUAAGCCUCC [RB521],Kd,"[1]; RB520 pattern, hexaethylene glycol spacer between G11 and C12, 3' idT, buffer F, 37 C",6 nM
GGAGGACGGCGCGCCUGGCAUAAGCCUCC [RB537],Kd,"[1]; RB526 pattern, hexaethylene glycol spacer between G11 and C12, 3' idT",< 10 nM
GGAGGACGGCGCGCCUGGCAUAAGCCUCC [RB540],Kd,"[1]; 2'-OH G1, 2'-deoxy A6,G8,G9, 2'-F C7,C14,C15,U16,C19,U21, all others 2'-OMe, hexaethylene glycol spacer between G11 and C12, 3' idT, buffer F, 37 C",15 nM
GGGAGGACGACGCGUCUGGCAUAAGCCUCCC [RB536],Kd,[1]; RB535 with 2'-OMe G9,> 40 nM
GGAGGACGGCGCGCCUGGCAUAAGCCUCC [RB507],Kd,"[1]; RB490 pattern, hexaethylene glycol spacer between G11 and C12, 3' idT",< 10 nM
"GGGAGGACGGCGAUCACACGCCUGGCGUAAGCCUCCC (ssRNA, 2'-F C and U; 2'-OH A and G) [EF-3 T5 mut8]",Kd,[2],15.5 nM
"GGGAGGACGGCGAUCACACGCCUUGCAUAAGCCUCCC (ssRNA, 2'-F C and U; 2'-OH A and G) [EF-3 T5 mut9]",Kd,[3],15.5 nM
"GGGAGGACGGCGAUCACACGCCUGGCAUAAGCCUCCC (ssRNA, 2'-F C and U; 2'-OH A and G) [EF-3 T5 mut10]",Kd,[4],15.5 nM
"GGAGGACGGCGCGCCUGGCAUAAGCCUCC (ssRNA, RB549 with 2'-OMe G1 and 5' hexylamino linker) [RB560]",Kd,[5],< 10 nM
"GGAGGACGGCGCGCCUGGCAUAAGCCUCC (ssRNA, RB540 with 2'-OH G8) [RB551]",Kd,[6],15.5 nM
"GGAGGACGGCGCGCCUGGCAUAAGCCUCC (ssRNA, RB542 with 5' branched 40 kDa PEG) [RB570]",Kd,[5],15.5 nM
"GGGAGGACGUGCGGAUCACACCGCGCUUGCGUAAGCCUCCC (ssRNA, 2'-F C and U; 2'-OH A and G) [EF-3 T3 (RB445)]",Kd,[6],> 40 nM
"GGGAGGACGUGCGGUCUAAGCUGCGCUGGCAUAAGCCUCCC (ssRNA, 2'-F C and U; 2'-OH A and G) [EF-31 T4 (RB441)]",Kd,[6],> 40 nM
"GGGAGGACGGCCUAAGCCUGGCAUAAGCCUCCC (ssRNA, 2'-F C and U; 2'-OH A and G) [EF-31 T8]",Kd,[6],> 40 nM
"GGGAGGACGGCGCGCCUGGCAUAAGCCUCCC (ssRNA, RB490 with 5' hexylamino linker) [RB508]",Kd,[7],< 10 nM
"GGGAGGACGGCGCGCCUGGCAUAAGCCUCCC (ssRNA, RB490 with 2'-OMe G6,A7,C8) [RB517]",Kd,[6],> 40 nM
"GGGAGGACGGCGCGCCUGGCAUAAGCCUCCC (ssRNA, RB490 with 2'-OMe G6,C15,A21,A23,A24,G25) [RB520]",Kd,[8],~6 nM
"GGGAGGACGGCGCGCCUGGCAUAAGCCUCCC (ssRNA, RB524 with 2'-OMe A7, 2'-deoxy G9) [RB528]",Kd,[6],> 40 nM
"GGGAGGACGACGCGUCUGGCAUAAGCCUCCC (ssRNA, RB526 pattern with 2'-OH A10 and 2'-F U15) [RB535]",Kd,[6],15.5 nM
"GGGAGGACGGCGCGCCUGGCAUAAGCCUCCC (ssRNA, RB520 with 2'-OMe A7,G9) [RB523]",Kd,[6],> 40 nM
"GGGAGGACGGCGCGCCUGGCAUAAGCCUCCC (ssRNA, RB524 with 2'-OMe A7,G9) [RB527]",Kd,[6],> 40 nM
"EF-1 (RB424) (ssRNA, 2'-F C and U; 2'-OH A and G) RNA: GGGAGGACGAUGCGGCAAUCGAAGCUGCAUCCAGCGUAAGCCUUCCAGGGAUCGUCAGACGACUCGCUGAGGAUCCGAGA",Kd,[9],> 40 nM
"GGAGGACGGCGCGCCUGGCAUAAGCCUCC (ssRNA, RB551 with PS A6-C7) [RB553]",Kd,[6],15.5 nM
"GGAGGACGGCGCGCCUGGCAUAAGCCUCC (ssRNA, RB540 with PS G5-A6) [RB546]",Kd,[6],15.5 nM
"GGAGGACGGCGCGCCUGGCAUAAGCCUCC (ssRNA, RB540 with PS G8-G9) [RB549]",Kd,[8],~6.48 nM
"GGAGGACGGCGCGCCUGGCAUAAGCCUCC (ssRNA, RB540 with 2'-OMe G1 and 5' hexylamino linker) [RB542]",Kd,[5],15.5 nM
"GGAGGACGGCGCGCCUGGCAUAAGCCUCC (ssRNA, RB567 with 5' branched 40 kDa PEG) [RB571]",Kd,[10],~5 nM
"GGAGGACGGCGCGCCUGGCAUAAGCCUCC (ssRNA, RB537 with 2'-OMe G17) [RB538]",Kd,[6],15.5 nM
"GGAGGACGGCGCGCCUGGCAUAAGCCUCC (ssRNA, RB540 with PS A6-C7) [RB547]",Kd,[6],15.5 nM
"GGAGGACGGCGCGCCUGGCAUAAGCCUCC (ssRNA, RB566 with 2'-OMe G1 and 5' hexylamino linker) [RB567]",Kd,[5],< 10 nM
"GGGAGGACGGCGCUAACGCCUGGCAUAAGCCUCCC (ssRNA, 2'-F C and U; 2'-OH A and G; 3' idT) [RB448]",Kd,[8],~14.5 nM
"GGGAGGACGGCGCUAACGCCUGGCAUAAGCCUCCC (ssRNA, RB448 with 2'-OMe throughout Stem 1) [RB453]",Kd,[6],< 10 nM
"GGGAGGACGGCGCUAACGCCUGGCAUAAGCCUCCC (ssRNA, RB448 with 2'-OMe G23,C30) [RB462]",Kd,[6],< 10 nM
"GGAGGACGGCGCGCCUGGCAUAAGCCUCC (ssRNA, RB540 with PS G8-G9 and G9-C10) [RB566]",Kd,[11],~2.45 nM
"GGAGGACGGCGCGCCUGGCAUAAGCCUCC (ssRNA, RB540 with PS C7-G8) [RB548]",Kd,[6],15.5 nM
"GGAGGACGGCGCGCCUGGCAUAAGCCUCC (ssRNA, RB560 with 5' branched 40 kDa PEG) [RB569]",Kd,[5],< 10 nM
"EF-2 (RB427) (ssRNA, 2'-F C and U; 2'-OH A and G) RNA: GGGAGGACGAUGCGGUGCCAAAACACCCGUCUUGCAUAAGCCUCCUACGGCAACUCAGACGACUCGCUGAGGAUCCGAGA",Kd,[12],15.5 nM
"GGAGGACGGCGCGCCUGGCAUAAGCCUCC (ssRNA, RB551 with PS G5-A6) [RB552]",Kd,[6],15.5 nM
